The text below walks through data of paper PMC2685113.

This data set deals with streptavidin (UniProt P22629 25-183). The data set is described as follows: EMSA. (Mobility shift assays separate free from complexed probe on a gel.)
Sequence of streptavidin (P22629 25-183): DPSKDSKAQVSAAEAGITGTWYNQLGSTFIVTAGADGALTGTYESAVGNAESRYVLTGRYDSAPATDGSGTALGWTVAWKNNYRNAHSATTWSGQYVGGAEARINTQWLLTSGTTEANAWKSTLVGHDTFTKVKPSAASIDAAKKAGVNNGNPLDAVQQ

B1: S1-77 (structured_RNA)
RNA: GGGCCAUCGAUGCGGCCGCCGACCAGAAUCAUGCAAGUGCGUAAGAUAGUCGCGGGUCGGCGGCCGCAUCGAUGGCC
On to B1, for which the binding result was “binds”.
